Laboratory results published in the DeepSol protein solubility set.

assay: soluble on expression in E. coli; label from the status in PepcDB or PDB records

Soluble on expression in E. coli, not soluble:
MGSDKIHHHHHHMDLNEIIEKLKDILSEEKEGQKVLDRDVALALHIHPQSFACMKSRQKIPYEEILAFCAKRKISANWLFYNQAPESLIDTTNQYCYIRYFSQVHASAGGGAFNDTEACERIKLDAFWVERLGGEKEIKQIEAIAVTGDSMEPTLEDGDLIFIHRQKRQISKGGIFVIQTPHGIFVKRLQERLDGGVDILSDNSLYPTQTLERDGIEVIGRVVGALKNLE, MGSDKIHHHHHHMDLRQIRTFVYIAELRSYTRAAAFLHVSQPALSRQMRLLEEELRLKLFLRHGHGVELTNEGVAFFARCRDVLSEFEQLRHDFRSTGANKAVMGLVSVGLPAPATRFATPKLLHAARKSYPGLSVRFAEGFSALLHEWLLSGSLDLAVLFGSNTPKLLTSLPVLVEDLVAISAATKTSRKKNFVNAQDLQNTPLILPHRPHILRELIDSLHLKKVEILEVDSTSLMIELARVGDGTTILPAGSAEQSIRAGHVVALPIINPTLSWQVSICYSSVRPLSVGARVVLDLMRREIAQKVTSGEWLSGRLIRPGTEMTEGLDAAP, MGSDKIHHHHHHMDNDWIADYLRPRLARDNGEHLSRQLYRQLRELIGQRRLAGGSVLPASRALAQAMQLGRNTVLSAYDQLAAEGYLESRHGSGTYVCDVFTNSTSQTSHSTAPARPLSQRGQRLTASSRLPVRKLGAFVPGLPELELFPHKAWQQCLARQQRSAPLEWLHYQHQGGLPALQSALIQYLYLTRSVRCEPEQIIIAPGAQNALTLLAQLLADPGDAIWLEEPGYAGAQAAMQAAGLRCQAIRVDEQGLRPDPEAAPPRIIYVTPAHQYPTGAVMALPRRLELLAHARRHGSWIIEDDYDGEFCYASAPLAALQSLDRDGRVIYLGTFSKVMFPSLKLAYLVLPPELVDSYRRCQARLQGEGSYLQQAAVADFIAQGHFARHIRHMRELYQRRQQLLKHAADQYLGHAMSLHGGDAGMHLLAELPDGFDEWELQAAAAERLLWLRPLARHFLDTPYRNGLVLGYAGIDDHAIRPAVQQLADLLETRLK, MGSDKIHHHHHHMDNLPDKLQNIVEEVDHQIAPKLEEIEDQIVYNQAKVLKAFQDNNVAEADLNGATGYGDDDIGRDKLDKVYAQVFDTEDALVRPQFVSGTHTLFTALSGNLKYGDTLTYLTGMPYDTLQKVIGLTDDKRGTLAEKGVKFSYVPLSDENLIDYDVAEKILKRDQPKMVAIQRSRGYSTRKTFTVEQIKEMISFVKKVSPNSIIFIDNCYGEFAEKYEPTEYGADLMAGSLIKNAGGGLAKTGGYIVGKKDLVENAKLQLTAPGCTDEGATIGHLHDLYEGFFLAPNVTGMAEKGMIFAAALFEKMGLNVTPAWDEKRSDIIETIIFNDPEKMVKFVQEVQKNSPIDSFVTPEAVHMEGYEDKIIMAAGNFVSGSTIEFSADGPIRPPYAVYMQGGLTYAHDKVAIINSVRDTFFNKK, MGSDKIHHHHHHMDNLQFTHAIARIRVLETRLLDRSKIERMIDSSSAEEALKILGETEYLNYMSNVRSPEDYEILLSEELKRLYTLLYSISPERSIIDIMALRYDYHNLKVMLKGKYLEKDLTYLLIPVGTISNDKLKQIFATEFYKELTPLMREALEKAESEYEGDKDPQKIDLILDSYAYKEILSKSEEVNEKFINDYIKMSIDLNNIRALLRAKAQNKHRKFFEAIILDGGTIDKKTLISYESETSDSIANKLSYTPYEKIIRLGLEEYSKTNNISYFEKLSENYIMDFIKKAKQVSFGVEPLIGYIIAKETEIKIIRIIMVGKLNSIAPNIIRERLRDAYV, MGSDKIHHHHHHMDNNNSYLWPVTYDEVSHELTKWKFYKHFTKISGSVYLKNDLIDDPVLVTQALIKRCPQGVLRGYAALNRRGYQLFDDPWMPIISISGEPRTRKTTNVGKIIRRETPENLRRSGEFTLVSDSQALLDVFSLHGLDSFEHQVALIDHLIRQCPDLKDEIKKVPELRKHAEFTDEFAESPPESRLRVRLHMQGYRNFMPQVRVELEGRRFYLDLADPVWGVALEYNGGWHYTAEQRSKDAFRKNALKNAGWDVFEVTSKTLQSQQAWDYFFQQVRVAIQRKYADRKRRLPMQTVS, MGSDKIHHHHHHMDNPVEEHSPTAQTPVLNLDNVPVGVPLEWPIVDADGTLLFATGTILATTDERNFLFGHFHPQRGDLLDAATQPAPESDAHADPGSPLTLKDMHLEIGALIGVRPQVGSGAPMHPCRIIGFAPNHALFVTPPMHDGRMLPMGLGENIEIVAIASHAVFRFVCTIEAICRSPFDYVVLSKPGVIRRLRERKSIRVRTHLAVRFGIGQSGESYEGLGLAKGVSALGMSLAASWTLGAVGDRLRLAFRLKSKDLDTEIETTAVIRNVQQGSGPGTPSTHGLELDQLDATQQMAMKVFVFDRQDDVVYWSSGLK
